Here are results for one substance from article PMC11790868.

Several values for one entry are separate records, joined by “and”; a condition that tells them apart may be missing. Identical values can stand only once.

For test [1], the target named is H3K18DTU nucleosome (UniProt P0C0S8). The test is described as follows: native gel or EMSA; nucleosomes 100 nM, NAD+ 0 or 150 uM, SIRT7 0-1.6 uM; 10 mM Tris-HCl, 50 mM KCl, 1 mM DTT, pH 7.5; 25 °C, 30 min; 5% TBE native gel run on ice, GelRed. Background: A gel shift assay detects complexes by their altered migration in electrophoresis.
Test [2] concerns the target H3K36MTU nucleosome (UniProt P0C0S8). The description is as above.

In the case of “SIRT7 (wild type, full length) (from UniProt Q9NRC8 1-400) (enzyme)”, the stoichiometry N (SIRT7 per nucleosome) in test [1] is 1 and 2; in test [2], 1 and 2.
